# Experimental data reported in patent US20200087408A1 (ANAPTYSBIO, published 2020).
# B1: Hzd 18D4 (APE7247) (antibody, V domains shown)
# VH: DVQFQESGPGLVKPSQTLSLTCTVTGYSITADFAWNWIRQPPGKGLEWIGYISYSGDTNYNPSLKSRVTITRDTSKNQFSLKLSSVTAADTAVYFCAIRGPYSFTYWGQGTLVTVSS
# VL: DIQMTQSPSSLSASVGDRVTITCRASQWINNYLNWYQQKPGKAPKLLIYYTSMLHSGVPSRFSPSGSGNDYTFTISSLQPEDIATYYCQQGHTLPWTFGGGTKVEIKR
# notes: also called APE6903; APE07247
# B2: Hzd 5D3 (APE6155) (antibody, V domains shown)
# VH: QVQLVQSGAEVKKPGASVKVSCKASGYTFTNYWMNWVRQAPRQGLEWMGMFHPTGDVTRLNQKFKDRVTMTRDTSTSTVYMELSSLRSEDTAVYYCARTTSMIIGGFAYWGQGTLVTVSS
# VL: DIVMTQTPLSLSVTPGQPASISCRSSKSLLHRNAITYFYWYLHKPGQPPQLLIYQMSNLASGVPDRFSGSGSGTDFTLKISRVEAEDVGVYYCAQNLELPLTFGGGTKVEIK
# notes: also called APE6917; APE06155
# B3: Humanized (HzD) 1D9 (APE5281) (antibody, V domains shown)
# VH: QVQLMQSGAEVKKPGASVKVSCKASGFTFTSYDINWVRQAPGQRLEWMGWIYPGDSSTKYNEKFKGRVTITADKSANTAYMELASLRSEDTAVYFCTRSFYTMDYWGQGTTVTVSS
# VL: DIVMTQSPLSLPVTPGEPASISCRSSKSLLHSNANTYLYWFLQKPGQSPQLLISRMSNLASGVPDRFSGSGSGTDFTLKISRVEAEDVGVYYCMQHLEYPFTFGQGTKLEIK
# notes: also called 1D9 Humanized
# Tests used:
# [1] = biological target: T1, extracellular domain of human IL-36R (human, UniProt Q9HB29 20-335); assay: BIACORE T200 SPR, human IL-36R extracellular domain immobilised, antibody injected
# T1 construct: extracellular domain; Immobilised on the chip in the BIACORE assay; soluble and bead-coupled in the KINEXA assay; also called soluble human IL-36R extracellular domain
# T1 sequence (looked up): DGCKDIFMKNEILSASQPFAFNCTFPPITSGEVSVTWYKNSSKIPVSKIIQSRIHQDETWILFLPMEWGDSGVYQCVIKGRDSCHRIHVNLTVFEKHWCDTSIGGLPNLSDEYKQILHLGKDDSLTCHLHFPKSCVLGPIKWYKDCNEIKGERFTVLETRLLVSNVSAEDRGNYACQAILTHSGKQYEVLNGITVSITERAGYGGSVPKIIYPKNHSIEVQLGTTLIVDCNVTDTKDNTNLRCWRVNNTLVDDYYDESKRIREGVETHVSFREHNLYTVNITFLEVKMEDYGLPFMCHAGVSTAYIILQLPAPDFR
# Protocol: The binding affinities of various purified antibodies comprising immunoglobulin heavy chain (HC) and light chain (LC) polypeptides described herein were evaluated using BIACORE™ T200 […] assays. BIACORE™ T200 evaluation software (GE Healthcare, Buckinghamshire, United Kingdom) is used to determine antibody-antigen binding kinetics and affinity. The extracellular domain of human IL-36R was immobilized at approximately 100 RU onto a CMS sensor chip (GE Healthcare, Waukesha, Wis.) using amine coupling chemistry. HBS-EP+ buffer (0.01 M HEPES, 0.15 M NaCl, 3 mM EDTA, 0.05% Polysorbate, pH 7.6) (Teknova, Hollister, Calif.) was used to reconstitute each antibody at various concentrations Each antibody concentration was then injected for two to three minutes over immobilized antigen at a flow rate of 30 μL/min, and allowed to dissociate for 15 minutes. The surface was regenerated with 60 μL of 3 M MgCl₂ after each cycle. Association and dissociation kinetic constants (kon and koff) were fit globally using a 1:1 binding model with mass transport with the BIACORE™ T200 evaluation software in order to report on- and off-rates (ka and kd, respectively), as well as affinities (KD).
# [2] = biological target: cynomolgus monkey IL-36R variant 1 (on cells) (cynomolgus monkey); assay: cell-based or functional assay
# human IL-36R (on cells) [3] = biological target: T2, human IL-36R (on cells) (human, UniProt Q9HB29 20-575); assay: cell-based or functional assay
# T2 sequence (looked up): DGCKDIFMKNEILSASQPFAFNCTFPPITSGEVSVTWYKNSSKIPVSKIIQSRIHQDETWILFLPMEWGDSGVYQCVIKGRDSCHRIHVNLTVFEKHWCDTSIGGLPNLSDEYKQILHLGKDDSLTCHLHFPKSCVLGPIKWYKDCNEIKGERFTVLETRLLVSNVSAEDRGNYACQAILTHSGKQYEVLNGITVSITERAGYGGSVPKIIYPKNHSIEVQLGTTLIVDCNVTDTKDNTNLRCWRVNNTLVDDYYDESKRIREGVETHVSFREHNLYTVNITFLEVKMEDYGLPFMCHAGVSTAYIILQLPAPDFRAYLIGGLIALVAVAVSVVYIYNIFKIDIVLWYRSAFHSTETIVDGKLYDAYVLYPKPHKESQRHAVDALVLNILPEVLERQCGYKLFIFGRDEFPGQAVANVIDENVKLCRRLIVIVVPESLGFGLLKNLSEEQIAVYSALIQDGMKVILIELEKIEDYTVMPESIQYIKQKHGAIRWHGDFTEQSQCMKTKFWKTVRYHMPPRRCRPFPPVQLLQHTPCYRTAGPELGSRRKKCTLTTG
# [4] = biological target: T1, extracellular domain of human IL-36R; assay: KINEXA 3000 solution-phase equilibrium, soluble human IL-36R extracellular domain
# Protocol: The binding affinities of various purified antibodies comprising immunoglobulin heavy chain (HC) and light chain (LC) polypeptides described herein also were evaluated using a KINEXA® 3000 assay (Sapidyne Instruments, Boise, Id.) assays. KINEXA® technology measures the amount of unbound/free antibody molecule in solution phase after incubation with varying concentrations of antigen. Measuring binding events in the solution phase with micro beads for maximized surface area avoids mass transport limitations and mobility effects inherent to methods that measure binding to a solid phase. For each experiment, 50 μg of soluble human or cyno IL-36R extracellular domain was amine-coupled to 50 mg of UltraLink Biosupport beads (Thermo Fisher Scientific, Waltham, Mass.). […] Antibody-antigen solution was then flowed over antigen-coupled beads at a rate of 0.25 mL/min. Free antibody captured by beads was detected using ALEXA FLUOR™ 647-conjugated AffiniPure Donkey Anti-Human IgG (H+L) (Jackson ImmunoResearch, West Grove, Pa.) (500 ng/ml). The KD and/or ABC (active binding concentration) of antibody was obtained from non-linear regression analysis using a one-site homogeneous binding model in the KINEXA™ Pro Software.
# human IL-36R (on cells) [5] = biological target: T2, human IL-36R (on cells); assay: cell-based or functional assay; remark: listed apart in the source
# [6] = biological target: cynomolgus monkey IL-36R variant 1 (on cells) (cynomolgus monkey); assay: flow cytometry on CHO-K cells co-expressing cynomolgus IL-36R variant 1 and cynomolgus IL-1RAcP
# [7] = biological target: cyno IL-36R (BIACORE antigen of Table 4) (cynomolgus monkey); assay: BIACORE T200 SPR, cyno IL-36R
# human IL-36R (on cells) [8] = biological target: T2, human IL-36R (on cells); assay: flow cytometry on CHO-K cells co-expressing human IL-36R and human IL-1RAcP
# Protocol: The binding of antibodies to CHO-K cells stably co-expressing human IL-36R and human IL-1RAcP was examined. Cynomolgus IL-36R allelic variation was examined by Sanger sequencing, and four distinct allelic variants were identified within cynomolgus monkey populations. The binding of antibodies to CHO-K cells stably co-expressing cynomolgus monkey IL-36R variant 1 and cynomolgus monkey IL-1RAcP was also examined for APE6155 and APE7247. Each antibody was incubated with CHO cells harvested using accutase, washed, and seeded at 500,000 cells per well. Cells were incubated with antibodies at concentrations ranging from 33 nM-16 pM for 30 minutes at 4° C., and washed three times with FACS staining buffer. Cells were spun and aspirated, and then the incubated with 100 μl paraformaldehyde for 10 minutes at room temperature. Cells were again washed, aspirated, and stained with 100 μL of anti-human IgG Alexa 647 for 20 minutes at 4° C. Cells were resuspended in 100 μL FACS analysis buffer before analysis on the FACS Array (BD Biosciences).
# human IL-36R (on cells) [9] = biological target: T2, human IL-36R (on cells); assay: cell-based or functional assay; remark: listed apart in the source
# [10] = biological target: cynomolgus monkey IL-36R variant 2 (on cells) (cynomolgus monkey), A0A2K5; assay: cell-based or functional assay
# Sequence of cynomolgus monkey IL-36R variant 2 (on cells) (cynomolgus monkey), A0A2K5 (chain, as listed by the source mutant): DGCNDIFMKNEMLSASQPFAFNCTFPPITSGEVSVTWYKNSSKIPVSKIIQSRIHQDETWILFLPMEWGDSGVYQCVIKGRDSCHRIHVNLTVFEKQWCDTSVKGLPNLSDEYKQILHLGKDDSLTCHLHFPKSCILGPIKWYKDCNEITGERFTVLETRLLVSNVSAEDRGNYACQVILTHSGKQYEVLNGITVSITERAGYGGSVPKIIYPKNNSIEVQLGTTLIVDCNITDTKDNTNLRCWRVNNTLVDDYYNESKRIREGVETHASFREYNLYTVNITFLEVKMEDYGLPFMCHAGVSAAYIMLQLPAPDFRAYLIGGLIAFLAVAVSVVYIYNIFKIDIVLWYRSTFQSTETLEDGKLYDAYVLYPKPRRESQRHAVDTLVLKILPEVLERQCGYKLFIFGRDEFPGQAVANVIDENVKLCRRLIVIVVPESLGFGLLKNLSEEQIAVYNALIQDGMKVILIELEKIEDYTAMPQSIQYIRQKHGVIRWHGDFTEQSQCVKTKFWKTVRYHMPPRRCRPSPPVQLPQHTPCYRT
# [11] = biological target: cynomolgus monkey IL-36R variant 3 (on cells) (cynomolgus monkey), A0A2K5; assay: cell-based or functional assay
# Sequence of cynomolgus monkey IL-36R variant 3 (on cells) (cynomolgus monkey), A0A2K5 (chain, as listed by the source mutant): as above
# [12] = biological target: cynomolgus IL-36R (on cells, allelic variant not stated) (cynomolgus monkey), A0A2K5; assay: cell-based or functional assay
# Sequence of cynomolgus IL-36R (on cells, allelic variant not stated) (cynomolgus monkey), A0A2K5 (chain, as listed by the source mutant): as above
Binder,Kd [1] [nM],"EC50 (nM), IL-8 luciferase reporter assay, 300 ng/ml IL-36γ (Cyno IL-36R variant 1) [2] [nM]","EC50 (nM), IL-8 secretion by primary human keratinocytes, 1 ng/ml human IL-36β (human IL-36R (on cells) [3]) [nM]","EC50 (nM), IL-8 secretion by primary human keratinocytes, 10 ng/ml human IL-36α (human IL-36R (on cells) [3]) [nM]","EC50 (nM), IL-8 secretion by primary human keratinocytes, 100 ng/ml human IL-36γ (human IL-36R (on cells) [3]) [nM]",Kd [4] [nM],"EC50 (nM), HEK human IL-36R IL-8 luciferase reporter assay, 20 ng/ml hIL-36β (human IL-36R (on cells) [5]) [nM]","EC50 (nM), HEK human IL-36R IL-8 luciferase reporter assay, 50 ng/ml hIL-36α (human IL-36R (on cells) [5]) [nM]","EC50 (nM), HEK human IL-36R IL-8 luciferase reporter assay, 200 ng/ml hIL-36γ (human IL-36R (on cells) [5]) [nM]",EC50 [6] [nM],Kd [7] [nM],EC50 (human IL-36R (on cells) [8]) [nM],"EC50 (nM), IL-8 secretion by primary human monocytes, human IL-36α (human IL-36R (on cells) [9]) [nM]","EC50 (nM), IL-8 secretion by primary human monocytes, human IL-36β (human IL-36R (on cells) [9]) [nM]","EC50 (nM), IL-8 secretion by primary human monocytes, human IL-36γ (human IL-36R (on cells) [9]) [nM]",other results
B1,< 0.02,0.079,0.336,0.142,0.074,0.1,0.114,0.066,0.104,3.3,< 0.02,2.8,–,–,–,–
B2,0.071,0.042,0.227,0.125,0.093,0.169,0.22,0.23,0.4,2.4,–,1.5,0.088,0.117,0.078,"EC50 (nM), IL-8 luciferase reporter assay, 300 ng/ml IL-36γ (Cyno IL-36R variant 2) [10]: 0.043 nM; EC50 (nM), IL-8 luciferase reporter assay, 300 ng/ml IL-36γ (Cyno IL-36R variant 3) [11]: 0.21 nM; EC50 (nM), HEK cyno IL-36R IL-8 luciferase reporter assay, 300 ng/ml cIL-36γ [12]: 0.31 nM; EC50 (nM), HEK cyno IL-36R IL-8 luciferase reporter assay, 2 µg/ml cIL-36α [12]: 0.08 nM; EC50 (nM), HEK cyno IL-36R IL-8 luciferase reporter assay, 10 µg/ml cIL-36β [12]: 0.13 nM; EC50 (nM), IL-8 secretion by primary cynomolgus PBMCs, 10 ng/ml cyno IL-36β [12]: 1.5 nM; EC50 (nM), IL-8 secretion by primary cynomolgus PBMCs, 50 ng/ml cyno IL-36α [12]: 1.2 nM; EC50 (nM), IL-8 secretion by primary cynomolgus PBMCs, 250 ng/ml cyno IL-36γ [12]: 0.89 nM; EC50 (nM), IL-8 secretion by primary cynomolgus keratinocytes, 10 ng/ml cyno IL-36β [12]: 1.4 nM; EC50 (nM), IL-8 secretion by primary cynomolgus keratinocytes, 50 ng/ml cyno IL-36α [12]: 1.1 nM; EC50 (nM), IL-8 secretion by primary cynomolgus keratinocytes, 250 ng/ml cyno IL-36γ [12]: 1.1 nM"
B3,0.077,–,0.053,0.047,0.04,0.008,–,0.17,0.12,–,0.126,–,0.035,0.033,0.027,–
